# Source: publication PMC5454392, “Selective BET bromodomain inhibition as an antifungal therapeutic strategy” (Nature Communications, 2017)
# Square brackets hold non-standard residues; d marks the D form. Ends that are not written are not given here. Arg(Me2a) = CN(C)C(=N)NCCC[C@H](N)C(=O)O; Lys(Me3) = C[N+](C)(C)CCCC[C@H](N)C(=O)O; Arg(Me2s) = CN=C(NC)NCCC[C@H](N)C(=O)O; pT = C[C@@H](OP(=O)(O)O)[C@H](N)C(=O)O; Lys(Me2) = CN(C)CCCC[C@H](N)C(=O)O; pS = N[C@@H](COP(=O)(O)O)C(=O)O; Lys(Me) = CNCCCC[C@H](N)C(=O)O; Me2a = not defined here; me2a = not defined here
# T1: CaBdf1 BD2 (GST-tagged, wild-type) (Candida albicans (strain SC5314 / ATCC …, UniProt Q5A4W8))
# T1 chain: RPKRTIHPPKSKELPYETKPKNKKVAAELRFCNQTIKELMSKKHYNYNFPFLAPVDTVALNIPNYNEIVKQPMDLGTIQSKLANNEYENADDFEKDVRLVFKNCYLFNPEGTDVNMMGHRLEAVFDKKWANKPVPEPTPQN
# T2: CaBdf1 BD1 (GST-tagged, wild-type) (Candida albicans (strain SC5314 / ATCC …, UniProt Q5A4W8))
# T2 chain: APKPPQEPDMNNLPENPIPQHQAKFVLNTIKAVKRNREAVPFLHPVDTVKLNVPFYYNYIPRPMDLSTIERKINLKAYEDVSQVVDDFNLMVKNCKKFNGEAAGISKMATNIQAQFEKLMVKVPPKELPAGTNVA
# Columns and labels:
# [1] = target: T1, CaBdf1 BD2 (GST-tagged, wild-type); test: histone peptide array (Active Motif MODified), 1 uM GST-tagged bromodomain, anti-GST detection, normalized mean intensity
# [2] = target: T2, CaBdf1 BD1 (GST-tagged, wild-type); test: as above
Binder,binding score [1],binding score [2]
ARTKQTARKSTGGKAPRKQ (A Rme2a T Kme2 Q T A Rme2a Kme2 S T G G K A P R K Q),0.00555,0.00399
SGRGKGGKGLGKGGAKRHR (pS G Rme2a G Kac G G K G L G K G G A K R H R),0.00444,0.0105
A[Arg(Me2s)]TK(Ac)QTARK(Me)STGGKAPRKQ,0.00333,0.00798
PDPAK(Ac)SAPAPKKGSK(Ac)KAVT,0.00962,0.0323
SGRGK(Ac)QGGKARAKAKSRSS [H2a 1-19],0.0074,0.021
ARTKQTARKSTGGKAPRKQ (A Rme2a T Kme3 Q T A R K S T G G K A P R K Q),0.00259,0.0109
AR(Me2a)TK(Me)QTAR(Me2s)K(Ac)STGGKAPRKQ (reading uncertain),0.0037,0.0341
ARTK(Me)QTAR(me2a)K(Me)STGGKAPRKQ (reading uncertain),0.00407,0.00508
ARTKQTARKSTGGKAPRKQ (A R T K Q T A R Kme1 S T G G K A P R K Q),0.00407,0.00435
ARTKQTARKSTGGKAPRKQ (A R T K Q T A R Kac pS T G G K A P R K Q),0.00407,0.00435
AR(Me2a)[pT]K(Me2)QTARKSTGGKAPRKQ (reading uncertain),0,0.00181
PRKQLATKAAR(Me2a)K(Me2)[pS]APATGG (reading uncertain),0.00555,0.00145
A[Arg(Me2a)]T[Lys(Me3)]QTA[Arg(Me2a)][Lys(Me)]STGGKAPRKQ,0.00851,0.00435
AR[pT]K(Me)QTARKSTGGKAPRKQ,0.00296,0.00471
PRKQLATKAA[Arg(Me2a)]KSAPATGG,0.00148,0.00326
ARTKQTA[Arg(Me2a)]K(Me)[pS][pT]GGKAPRKQ,0.0037,0.00471
AR(Me2a)[pT]K(Ac)QTARKSTGGKAPRKQ (reading uncertain),0.00111,0.00943
AR(Me2a)TK(Me2)QTARKSTGGKAPRKQ (reading uncertain),0.0037,0.00109
SGRGKGGKGLGKGGAKRHR (S G R G K G G Kac G L G Kac G G A Kac R H R),0.16,0.201
PRKQLATKAAR(Me2a)K(Ac)SAPATGG (reading uncertain),0.00999,0.0189
ARTKQTARKSTGGKAPRKQ (A R T K Q T A R Kme2 S T G G K A P R K Q),0.00296,0.00109
SGRGKGGKGLGKGGAKRHR (S G Rme2a G Kac G G Kac G L G K G G A K R H R),0.0411,0.0558
SGRGKGGKGLGKGGAKRHR (pS G Rme2s G K G G K G L G K G G A K R H R),0.00333,0.00508
RKSAPATGGVKKPHRYRPG (R K S A P A T G G V Kme2 K P H R Y R P G) [H3 26-45],0.00555,0.0058
ARTKQTARKSTGGKAPRKQ (A Rme2a T Kme1 Q T A Rme2s Kme2 S T G G K A P R K Q),0.00222,0.00218

Binder,binding score [1],binding score [2]
ARTKQTARKSTGGKAPRKQ (A Rme2s T Kme3 Q T A Rme2a Kme1 S T G G K A P R K Q),0.00222,0.0272
ARTKQTARKSTGGKAPRKQ (A R T K Q T A Rme2s Kme2 pS T G G K A P R K Q),0.00333,0.00363
PRKQLATKAARK(Me3)[pS]APATGG,0.00074,0.0029
ARTKQTARKSTGGKAPRKQ (A Rme2s T Kac Q T A Rme2s Kme1 S T G G K A P R K Q),0.00407,0.00653
ARTKQTARKSTGGKAPRKQ (A R T Kac Q T A Rme2s Kme3 S T G G K A P R K Q),0.00407,0.00689
ARTKQTARKSTGGKAPRKQ (A Rme2a T Kac Q T A Rme2a K S T G G K A P R K Q),0.00592,0.00399
SGRGKGGKGLGKGGAKRHR (pS G Rme2a G K G G K G L G K G G A K R H R),0.00148,0.00471
ARTKQTARKSTGGKAPRKQ (A Rme2s T Kme1 Q T A R Kme3 S T G G K A P R K Q),0.00259,0.00326
ARTKQTA[Arg(Me2s)]K(Ac)[pS]TGGKAPRKQ,0.00296,0.00363
SGRGKGGKGLGKGGAKRHR (S G Rme2s G Kac G G Kac G L G K G G A K R H R),0.0322,0.0334
A[Arg(Me2a)]TK(Ac)QTA[Arg(Me2s)][Lys(Me3)]STGGKAPRKQ,0.0122,0.00653
A[Arg(Me2a)]T[Lys(Me3)]QTA[Arg(Me2s)][Lys(Me2)]STGGKAPRKQ,0.00592,0.00326
PDPAK(Ac)SAPAPKK(Ac)G[pS]K(Ac)KAVT,0.232,0.0982
ARTKQTARKSTGGKAPRKQ (A Rme2s T Kme1 Q T A Rme2s Kme2 S T G G K A P R K Q),0.00333,0.00254
ARTKQTARKSTGGKAPRKQ (A R T Kme1 Q T A Rme2a Kme3 S T G G K A P R K Q),0.00333,0.00254
AR[pT]K(Me3)QTARKSTGGKAPRKQ,0.00296,0.00435
SGRGKGGKGLGKGGAKRHR (pS G Rme2s G Kac G G Kac G L G K G G A K R H R),0.0352,0.054
PRKQLATKAA[Arg(Me2a)]K(Me)SAPATGG,0.00444,0.00399
PRKQLATKAAR(Me2s)K(Me3)SAPATGG,0.0037,0.00181
ARTKQTARKSTGGKAPRKQ (A R T K Q T A Rme2a Kme2 pS pT G G K A P R K Q),0.00555,0.00471
ARTKQTARKSTGGKAPRKQ (A R T Kme3 Q T A Rme2s Kme3 S T G G K A P R K Q),0.00407,0.00399
PDPAK(Ac)SAPAPKK(Ac)G[pS]KKAVT,0.00481,0.00979
AR(Me2s)TK(Ac)QTARKSTGGKAPRKQ,0.00074,0.00616
ARTKQTARKSTGGKAPRKQ (A R T K Q T A R K pS pT G G K A P R K Q),0.00407,0.00326
AR[pT]K(Ac)QTARKSTGGKAPRKQ,0.00333,0.00725
